In this data set the test system is Nc1nc2c(ncn2[C@@H]2O[C@H](COP(=O)(O)OP(=O)(O)OP(=O)(O)O)[C@@H](O)[C@H]2O)c(=O)[nH]1. Briefly: purified protein. Type of data set: biochemical, Blastocystis hominis. Conditions: 129 μM CoA, 10 mM succinate, 50 mM KCl, 10 mM MgCl2, 50 mM Tris-HCl pH 7.4, 30 nM enzyme.

As for “Blastocystis SCS (succinyl-CoA synthetase, SCSα + SCSβ) (Blastocystis sp. ATCC 50177/Nand II; K128D/K60E)”, the Km was determined as 143 ± 17 µM, the kcat stood at 0.0195 ± 0.001 s⁻¹ and the kcat/Km was found to be 136 M⁻¹ s⁻¹.

As to “Blastocystis SCS (succinyl-CoA synthetase, SCSα + SCSβ) (Blastocystis sp. ATCC 50177/Nand II; K128D/K60E/L241F/V127L)”, the Km turned out to be 82 ± 12 µM, the kcat is 0.0078 ± 0.0004 s⁻¹ and the kcat/Km was found to be 96 M⁻¹ s⁻¹.

By Km is commonly meant the substrate concentration at which the rate is half of its maximum. Usually kcat stands for the number of substrate molecules converted per active site and unit of time at saturation. The kcat/Km is the turnover number divided by the Michaelis constant.

Values taken from PMC5404824, “Engineering Nucleotide Specificity of Succinyl-CoA Synthetase in Blastocystis: The Emerging Role of Gatekeeper Residues” (Biochemistry, 2016).
